# Reference: paper PMC11522930, “2,2-Difluoro Derivatives of Fucose Can Inhibit Cell Surface Fucosylation without Causing Slow Transfer to Acceptors” (JACS Au, 2024)
# B1: FUT8 (Homo sapiens) (protein)
# chain: MRPWTGSWRWIMLILFAWGTLLFYIGGHLVRDNDHPDHSSRELSKILAKLERLKQQNEDLRRMAESLRIPEGPIDQGPAIGRVRVLEEQLVKAKEQIENYKKQTRNGLGKDHEILRRRIENGAKELWFFLQSELKKLKNLEGNELQRHADEFLLDLGHHERSIMTDLYYLSQTDGAGDWREKEAKDLTELVQRRITYLQNPKDCSKAKKLVCNINKGCGYGCQLHHVVYCFMIAYGTQRTLILESQNWRYATGGWETVFRPVSETCTDRSGISTGHWSGEVKDKNVQVVELPIVDSLHPRPPYLPLAVPEDLADRLVRVHGDPAVWWVSQFVKYLIRPQPWLEKEIEEATKKLGFKHPVIGVHVRRTDKVGTEAAFHPIEEYMVHVEEHFQLLARRMQVDKKRVYLATDDPSLLKEAKTKYPNYEFISDNSISWSAGLHNRYTENSLRGVILDIHFLSQADFLVCTFSSQVCRVAYEIMQTLHPDASANFHSLDDIYYFGGQNAHNQIAIYAHQPRTADEIPMEPGDIIGVAGNHWDGYSKGVNRKLGRTGLYPSYKVREKIETVKYPTYPEAEK
# notes: isolated enzyme; construct not described in main text
# Substrate: C[C@@H]1O[C@H](OP(=O)(O)OP(=O)(O)OC[C@H]2O[C@@H](n3cnc4c(=O)[nH]c(N)nc43)[C@H](O)[C@@H]2O)[C@@H](O)[C@H](O)[C@@H]1O
# Assay: GDP-Glo glycosyltransferase assay, nonlinear regression
# Format: biochemical, Homo sapiens
# Details: saturating biantennary N-glycan acceptor 7; 1 h
# Text: GDP-Glo glycosyltransferase assay, nonlinear regression on FUT8
protein,measurement,value
B1,Km,33.8 ± 2.5 µM
